The supplement of paper PMC10567573

B1: KLHL12 (parent)
chain: REESLPNLLQYVRMPLLTPRYITD

Variants of: B1
Experiment: protein stability index of a GFP-peptide fusion (GPS, HEK-293T) (PSI 1-6); higher = more stable
Conditions: c terminus: a fixed tail appended
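Also: lentivirally expressed fusions sorted by FACS into six bins by GFP to DsRed ratio, PSI derived from sequencing read proportions per bin multiplied by bin number.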

Point of comparison: REESLPNLLQYSRMPLLTPRYITD, protein stability index 3.16. Against it:
- REESLPNLLQEVRMPLLTPRYITD — higher, 3.9
- REEELPNLLQYVRMPLLTPRYITD — lower, 2.72
- REMSLPNLLQYVRMPLLTPRYITD — lower, 1.9
- REESLPNLLQYVRMPLLTPRYITI — lower, 3.11
- REESLMNLLQYVRMPLLTPRYITD — lower, 2.11
- REESLPNLLQYVRMFLLTPRYITD — lower, 2.24
- REESLPNLLQYVRMPLLTPRYIGD — lower, 2.48
- REESLPNLLQYYRMPLLTPRYITD — lower, 2.6
- REEHLPNLLQYVRMPLLTPRYITD — lower, 2.51
- REESLPNLLQYVRMPLLTPRYITM — lower, 1.6
- REESLPNLLQYVRMPLLTPRYITW — lower, 2.11
- REESLPNLGQYVRMPLLTPRYITD — lower, 3.03
- REESLPNLLQYVRMPLPTPRYITD — lower, 2.54
- REESLPNLLQYVRMPLLTPRYIFD — lower, 1.62
- REESLPNLLQYVRMLLLTPRYITD — higher, 4.9
- RPESLPNLLQYVRMPLLTPRYITD — lower, 2.56
- REESLPNLLQLVRMPLLTPRYITD — lower, 2.09
- REESLPNLLQYVHMPLLTPRYITD — lower, 2.38
- REESLPNLLQYVRMPLLTTRYITD — lower, 2.46
- REESLPNLLGYVRMPLLTPRYITD — lower, 2.45
- REESLPNVLQYVRMPLLTPRYITD — lower, 2.53
- REESLPNLLQYVRFPLLTPRYITD — lower, 2.09
- REESLPNLLQYVRMPLLTKRYITD — lower, 2.41
- REESLPNLLQYVRMPLVTPRYITD — higher, 3.56
- REESGPNLLQYVRMPLLTPRYITD — lower, 2.67
- REESLPNLLQYVRMPLLTPRRITD — higher, 3.24
- REESLPNLLQYVRMPLLTPRYRTD — higher, 3.84
- REESLPNLLQYVRMPLGTPRYITD — lower, 2.77
- REESLPNLLQFVRMPLLTPRYITD — lower, 2.92
- REESLPNLLQYVRMQLLTPRYITD — lower, 2.45
- REESLPNLLQYVRMPLLTPRYIKD — higher, 3.35
- REELLPNLLQYVRMPLLTPRYITD — lower, 1.89
- REESLPNLLQYVRMPLLTHRYITD — lower, 1.47
- REESLPNLLQYVRMPLLTPRDITD — higher, 3.69
- REESVPNLLQYVRMPLLTPRYITD — lower, 2.59
- REESLPWLLQYVRMPLLTPRYITD — higher, 3.17
- REESLPNLLQIVRMPLLTPRYITD — lower, 2.68
- RETSLPNLLQYVRMPLLTPRYITD — lower, 2.67
- REESLPNLLQYVRMPLLTPRYITH — lower, 2.06
- REESLPNLLQYVRMWLLTPRYITD — lower, 2
- REESLPNLLQYVRMPLFTPRYITD — lower, 2.16
- REESLPNLLQYVRMHLLTPRYITD — lower, 2.65
- RKESLPNLLQYVRMPLLTPRYITD — lower, 2.31
- REESLPNLLQYVRMPALTPRYITD — lower, 2.56
- REESLPNLLQYVRMPLLEPRYITD — lower, 2.87
- REESLPNLLQYVRMPLLTPRYFTD — lower, 1.93
- REEFLPNLLQYVRMPLLTPRYITD — lower, 2.15
- REESLPNLLQYVRMPLLGPRYITD — higher, 3.92
- RYESLPNLLQYVRMPLLTPRYITD — lower, 2.83
- REESAPNLLQYVRMPLLTPRYITD — higher, 3.47
- REESLPNQLQYVRMPLLTPRYITD — higher, 3.17
- REESLPRLLQYVRMPLLTPRYITD — lower, 2.3
- REESLPNLLQRVRMPLLTPRYITD — higher, 3.21
- REESLPNLLQYVRPPLLTPRYITD — higher, 3.36
- REESLVNLLQYVRMPLLTPRYITD — lower, 1.6
- REESLPNLLQKVRMPLLTPRYITD — lower, 2.87
- REESLPNLLQDVRMPLLTPRYITD — higher, 3.96
- REESLPNLLQYVRMPLLTPRYITT — lower, 2.17
- REESLPNLLQYVRDPLLTPRYITD — higher, 3.17
- REESLPNLLQYVRMPLLTPRYITG — lower, 2.28
- REESLPNCLQYVRMPLLTPRYITD — lower, 2.29
- REESLPNLLQYVRMPLLTPREITD — higher, 3.17
- REESLPNLLQYVRMPLLYPRYITD — lower, 1.95
- REESLPTLLQYVRMPLLTPRYITD — lower, 2.1
- RAESLPNLLQYVRMPLLTPRYITD — higher, 3.56
- REEKLPNLLQYVRMPLLTPRYITD — lower, 2.41
- RESSLPNLLQYVRMPLLTPRYITD — lower, 2.14
- REESLPNLLQYVRMVLLTPRYITD — lower, 2.34
- REESLPNLLQYIRMPLLTPRYITD — lower, 2.77
- REESLPNLLQYVRMPLLTPRYIYD — lower, 2.09
- REESLPNLLQYVRMPTLTPRYITD — lower, 2.75
- REESLPNLLQYVRMPELTPRYITD — lower, 3.04
- REESLPNLLQYVLMPLLTPRYITD — higher, 3.6
- REESLPNLLQYVRMPLLTPRYIDD — lower, 3.12
- REESLPNLLQYVRIPLLTPRYITD — lower, 2.56
- REESLPNLLQYVRMPLLTGRYITD — lower, 2.75
- REESLNNLLQYVRMPLLTPRYITD — lower, 2.45
- REESLPNLLQYVRMPNLTPRYITD — lower, 2.77
- REESLPNLLQYVAMPLLTPRYITD — lower, 1.49
- REESLPNLPQYVRMPLLTPRYITD — lower, 3.07
- REESLPNLLQYVRMPLLTPFYITD — lower, 1.95
- REESLPNLLQYVRMPLLTPRWITD — lower, 1.79
- RSESLPNLLQYVRMPLLTPRYITD — higher, 3.42
- REENLPNLLQYVRMPLLTPRYITD — lower, 1.93
- REESLPNLLYYVRMPLLTPRYITD — lower, 2.16
- REESLPNLLQYVRMPLLTPRYIAD — lower, 2.9
- REESLPNLLQYVRRPLLTPRYITD — lower, 2.68
- REESLPNLLQYVRMPKLTPRYITD — lower, 2.93
- REESLPNLLQYVRMPLNTPRYITD — higher, 3.42
- REESLWNLLQYVRMPLLTPRYITD — lower, 2.11
- REESLPNLLQYVRMPLLTPRYSTD — lower, 2.72
- REESLPNLLQYARMPLLTPRYITD — the same, 3.16
- REESLPNLLQYVCMPLLTPRYITD — higher, 3.21
